Source: the supplement of paper PMC9112550, “Optimization of the antimicrobial peptide Bac7 by deep mutational scanning” (BMC Biology, 2022)

Tested on: Escherichia coli TOP10
Test: shrunken log2 fold change of peptide-encoding DNA abundance (4.5 h post-induction vs induction); higher = less antimicrobial activity (less host growth inhibition)
Conditions: time post-induction: 4.5 h; library: site-saturation at positions 5, 18, 19, 20
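Note: peptides expressed intracellularly from a pBAD plasmid library in pooled LB shake-flask culture, induced with 0.3% L-arabinose, DNA abundance read by NGS, three biological replicates, DESeq2 with apeglm shrinkage.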

Sequence | shrunken log2 fold change
RRIRKRPPRLPRPRPRPGMIPRP | -0.0362
RRIRIRPPRLPRPRPRPPYRPRP | -0.468
RRIRWRPPRLPRPRPRPYWQPRP | -0.0738
RRIRMRPPRLPRPRPRPVEMPRP | -0.0685
RRIRCRPPRLPRPRPRPEVSPRP | 0.282
RRIRGRPPRLPRPRPRPTHPPRP | 0.868
RRIRMRPPRLPRPRPRPGYFPRP | 0.0909
RRIRMRPPRLPRPRPRPAKHPRP | 0.542
RRIRHRPPRLPRPRPRPTPQPRP | 0.541
RRIRKRPPRLPRPRPRPYLRPRP | -0.0481
RRIRWRPPRLPRPRPRPWHKPRP | -0.0356
RRIRMRPPRLPRPRPRPKYSPRP | -0.326
RRIRLRPPRLPRPRPRPHWQPRP | 0.0281
RRIRIRPPRLPRPRPRPYIAPRP | -0.158
RRIRDRPPRLPRPRPRPCNMPRP | -0.225
RRIRHRPPRLPRPRPRPDGVPRP | 0.0513
RRIRNRPPRLPRPRPRPEADPRP | 0.0747
RRIRNRPPRLPRPRPRPMSSPRP | -0.123
RRIRVRPPRLPRPRPRPRAWPRP | 0.086
RRIRPRPPRLPRPRPRPVMIPRP | -0.251
RRIRKRPPRLPRPRPRPNEIPRP | 0.118
RRIRMRPPRLPRPRPRPGQRPRP | 1.08
RRIRARPPRLPRPRPRPQKAPRP | 0.0481
RRIRWRPPRLPRPRPRPELYPRP | 0.541
RRIRVRPPRLPRPRPRPQESPRP | -0.0491

Sequence | shrunken log2 fold change
RRIRWRPPRLPRPRPRPRSNPRP | -0.133
RRIRKRPPRLPRPRPRPPGRPRP | 2.07
RRIRNRPPRLPRPRPRPEHRPRP | -0.226
RRIRERPPRLPRPRPRPRLTPRP | -0.0882
RRIRSRPPRLPRPRPRPHPFPRP | -0.25
RRIRWRPPRLPRPRPRPGHVPRP | 0.153
RRIRPRPPRLPRPRPRPMQMPRP | 0.00304
RRIRQRPPRLPRPRPRPVLIPRP | 0.0422
RRIRQRPPRLPRPRPRPMQHPRP | -0.165
RRIRARPPRLPRPRPRPKKCPRP | 0.0283
RRIRWRPPRLPRPRPRPTYNPRP | 0.4
RRIRVRPPRLPRPRPRPLLMPRP | -0.325
RRIRARPPRLPRPRPRPIEQPRP | 0.124
RRIRDRPPRLPRPRPRPTLYPRP | 0.26
RRIRTRPPRLPRPRPRPNNKPRP | -0.474
RRIRHRPPRLPRPRPRPEGSPRP | -0.0192
RRIRSRPPRLPRPRPRPDWCPRP | 0.224
RRIRSRPPRLPRPRPRPFLEPRP | -0.248
RRIRKRPPRLPRPRPRPQNFPRP | -0.214
RRIRTRPPRLPRPRPRPNCQPRP | -0.369
RRIRHRPPRLPRPRPRPGASPRP | -0.196
RRIRHRPPRLPRPRPRPVPWPRP | 0.0803
RRIRDRPPRLPRPRPRPVNKPRP | -0.0502
RRIRYRPPRLPRPRPRPKRLPRP | -0.102
RRIRVRPPRLPRPRPRPWKIPRP | -0.0261

Sequence | shrunken log2 fold change
RRIRNRPPRLPRPRPRPTQGPRP | 0.331
RRIRHRPPRLPRPRPRPFPMPRP | -0.651
RRIRTRPPRLPRPRPRPSNKPRP | -0.916
RRIRRRPPRLPRPRPRPKWNPRP | 0.0781
RRIRWRPPRLPRPRPRPCWAPRP | 0.197
RRIRKRPPRLPRPRPRPNTSPRP | 0.0472
RRIRSRPPRLPRPRPRPPCCPRP | -0.107
RRIRGRPPRLPRPRPRPDRFPRP | 0.375
RRIRYRPPRLPRPRPRPISCPRP | -0.202
RRIRVRPPRLPRPRPRPPPRPRP | 1.03
RRIRCRPPRLPRPRPRPTEAPRP | 0.425
RRIRARPPRLPRPRPRPCVRPRP | 0.135
RRIRARPPRLPRPRPRPNTEPRP | 0.154
RRIRSRPPRLPRPRPRPGLLPRP | -0.0369
RRIRVRPPRLPRPRPRPIFHPRP | -0.0258
RRIRKRPPRLPRPRPRPAKYPRP | 0.0456
RRIRDRPPRLPRPRPRPGVQPRP | -0.0372
RRIRARPPRLPRPRPRPKVWPRP | 0.766
RRIRFRPPRLPRPRPRPADGPRP | 0.183
RRIRDRPPRLPRPRPRPCWDPRP | 0.392
RRIRCRPPRLPRPRPRPHAAPRP | 0.31
RRIRGRPPRLPRPRPRPHWEPRP | 0.324
RRIRYRPPRLPRPRPRPRTLPRP | -0.537
RRIRTRPPRLPRPRPRPTTEPRP | -0.16
RRIRPRPPRLPRPRPRPMINPRP | -0.179

Sequence | shrunken log2 fold change
RRIRFRPPRLPRPRPRPGWEPRP | 0.0875
RRIRWRPPRLPRPRPRPSGQPRP | -0.0599
RRIRIRPPRLPRPRPRPLASPRP | 0.0396
RRIRIRPPRLPRPRPRPTVQPRP | -0.146
RRIRGRPPRLPRPRPRPMYFPRP | -0.0129
RRIRFRPPRLPRPRPRPRIHPRP | -0.262
RRIRWRPPRLPRPRPRPFNVPRP | -0.114
RRIRARPPRLPRPRPRPAVFPRP | 0.679
RRIRPRPPRLPRPRPRPPEYPRP | -0.558
RRIRVRPPRLPRPRPRPIGTPRP | -0.0334
RRIRRRPPRLPRPRPRPNARPRP | 0.35
RRIRGRPPRLPRPRPRPCRKPRP | -0.079
RRIRMRPPRLPRPRPRPGPEPRP | 0.797
RRIRNRPPRLPRPRPRPAIIPRP | 0.154
RRIRGRPPRLPRPRPRPQTRPRP | 1.12
RRIRVRPPRLPRPRPRPGVGPRP | 0.275
RRIRNRPPRLPRPRPRPQPGPRP | 0.285
RRIRHRPPRLPRPRPRPWVYPRP | -0.125
RRIRIRPPRLPRPRPRPHFGPRP | -0.00693
RRIRPRPPRLPRPRPRPGYGPRP | 0.0799
RRIRGRPPRLPRPRPRPYSQPRP | -0.621
RRIRWRPPRLPRPRPRPVENPRP | -0.101
RRIRARPPRLPRPRPRPMHIPRP | -0.132
RRIRIRPPRLPRPRPRPTMLPRP | -0.487
RRIRDRPPRLPRPRPRPEKWPRP | -0.00325

Sequence | shrunken log2 fold change
RRIRPRPPRLPRPRPRPRLMPRP | 0.337
RRIRRRPPRLPRPRPRPPRNPRP | 1.28
RRIRNRPPRLPRPRPRPVTWPRP | -0.0637
RRIRLRPPRLPRPRPRPLMVPRP | -0.326
RRIRTRPPRLPRPRPRPVRQPRP | 0.264
RRIRKRPPRLPRPRPRPSAYPRP | -0.277
RRIRNRPPRLPRPRPRPFTLPRP | -0.884
RRIRVRPPRLPRPRPRPPPCPRP | 0.358
RRIRPRPPRLPRPRPRPLTFPRP | -0.113
RRIRTRPPRLPRPRPRPGKCPRP | 0.0114
RRIRRRPPRLPRPRPRPRNGPRP | 0.144
RRIRERPPRLPRPRPRPTYLPRP | -0.178
RRIRKRPPRLPRPRPRPRTDPRP | 0.206
RRIRRRPPRLPRPRPRPLIKPRP | -0.0254
RRIRTRPPRLPRPRPRPYKIPRP | -0.15
RRIRARPPRLPRPRPRPETVPRP | 0.312
RRIRPRPPRLPRPRPRPEYHPRP | -0.0649
RRIRERPPRLPRPRPRPRKIPRP | 0.0442
RRIRHRPPRLPRPRPRPGELPRP | 0.0143
RRIRARPPRLPRPRPRPMNHPRP | -0.151
RRIRSRPPRLPRPRPRPVTAPRP | -0.0769
RRIRPRPPRLPRPRPRPPREPRP | 0.678
RRIRDRPPRLPRPRPRPRQKPRP | 0.56
RRIRHRPPRLPRPRPRPLVLPRP | -0.0931
RRIRMRPPRLPRPRPRPTRTPRP | 2.22
